Results taken from patent US20240092899A1 (CHIA TAI TIANQING PHARMACEUTICAL GROUP, published 2024).

Columns and labels:
[1] = molecular target: heavy chain HZ5G11VH-CH1-IgG1; test: co-expression in ExpiCHO-S, protein A purification, non-reducing SDS-PAGE
Experimental: (§1) After transfection, the cells were placed in ExpiCHO™ medium (manufacturer: Thermo, Cat No. A2910001), and expressed and cultured at 32° C. with 5% CO₂ at 130 rpm. On day 10, the cell supernatant was collected, and the target protein was purified by protein A affinity chromatography using AKTA Pure 25 L system from GE and MabSelect SuRe LX packing. After elution, the concentration of the eluted protein was measured using NanoDrop Lite (Thermo Fisher Scientific). The purity of the eluted protein was measured by SEC-HPLC, and the protein purity of the sample used for the test was not lower than 80%. A total amount of […] of protein was taken from each sample and subjected to non-reducing SDS-PAGE electrophoresis. The protein was stained with Coomassie brilliant blue, and the electrophoresis results were observed.
(§2) After the co-expression and purification of HZ5G11VH-Cα-IgG1 and HZ14A9VL-IgK as well as HZ14A9VH-Cα-IgG1 and HZ5G11VL-IgK, various products were generated. […] The results above indicate that there is some interaction between the CL domain and MHCICα, thereby promoting the production of light and heavy-mispaired products.

[2] = molecular target: T1, heavy chain HZ5G11VH-Cα-IgG1; test: as above
T1 construct: HZ5G11 heavy chain whose CH1 is replaced by MHCICα
Experimental: as §1, §2

[3] = molecular target: heavy chain HZ14A9VH-CH1-IgG1; test: co-expression in ExpiCHO-S, protein A purification, non-reducing SDS-PAGE, Coomassie stain
Experimental: as §1, §2

human CD47 = molecular target: T2, human CD47 (human, UniProt Q08722 19-139); test: SPR (Biacore 8K), antibody captured on chip, antigen injected
T2 construct: Bought antigen; also called ACROBiosystems Cat. No. CD7-H5227
T2 sequence (Q08722 19-139 limits assumed): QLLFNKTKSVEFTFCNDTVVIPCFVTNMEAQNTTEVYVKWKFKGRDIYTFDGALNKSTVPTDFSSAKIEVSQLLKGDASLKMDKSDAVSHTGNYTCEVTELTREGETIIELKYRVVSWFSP
Excerpt: (§3) The affinity properties of the HZ5G11 monoclonal antibody, the HZ14A9 monoclonal antibody, MHL147-3322-IgG1-wt and MHL147-3322-IgG1-F118A bispecific antibodies were characterized by Biacore. The HZ5G11 monoclonal antibody, the HZ14A9 monoclonal antibody, MHL147-3322-IgG1-wt and MHL147-3322-IgG1-F118A bispecific antibodies were respectively immobilized onto a sensing chip by a capture method, and a human PDL1 (manufacturer: ACROBiosystems, Cat. No. PD1-H52H3) or human CD47 (manufacturer: ACROBiosystems, Cat. No. CD7-H5227) protein antigen solution with a certain concentration gradient was injected into the sample. Association/dissociation curves were acquired in real time by Biacore 8K Control Software 3.0, and data analysis was performed by Biacore Insight Evaluation Software 3.0. An association rate constant Ka, a dissociation rate constant Kd, and an equilibrium constant KD were obtained.

human PDL1 = molecular target: T3, human PDL1 (human, UniProt Q9NZQ7 19-238); test: as above
T3 construct: Bought antigen; also called ACROBiosystems Cat. No. PD1-H52H3
T3 sequence (Q9NZQ7 19-238 limits assumed): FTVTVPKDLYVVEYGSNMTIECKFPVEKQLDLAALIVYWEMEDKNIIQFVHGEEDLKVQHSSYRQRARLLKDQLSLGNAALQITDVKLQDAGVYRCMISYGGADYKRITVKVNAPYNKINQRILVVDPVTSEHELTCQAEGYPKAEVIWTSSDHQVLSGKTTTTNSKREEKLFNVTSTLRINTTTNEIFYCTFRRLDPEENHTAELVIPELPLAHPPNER
Excerpt: as §3

[4] = molecular target: heavy chain HZ14A9VH-CH1-IgG1; test: co-expression in ExpiCHO-S, protein A purification, non-reducing SDS-PAGE
Experimental: as §1, §2

[5] = molecular target: heavy chain HZ14A9VH-Cα-IgG1; test: as above
Experimental: as §1, §2

[6] = molecular target: heavy chain HZ5G11VH-CH1-IgG1; test: co-expression in ExpiCHO-S, protein A purification, non-reducing SDS-PAGE, Coomassie stain
Experimental: as §1, §2

[7] = molecular target: heavy chain HZ14A9VH-Cα-IgG1; test: as above

B1: light chain HZ14A9VL-IgK (other)
light: DIQMTQSPSSLSASVGDRVTITCKASENVVSYVSWYQQKPGKAPKLLIYGASNRYTGVPSRFIGSGSSTDFTLTISSLQPEDFATYYCGQSYSYPLTFGQGTKLEIKRTVAAPSVFIFPPSDEQLKSGTASVVCLLNNFYPREAKVQWKVDNALQSGNSQESVTEQDSKDSTYSLSSTLTLSKADYEKHKVYACEVTHQGLSSPVTKSFNRGEC
Does B1 bind [1]?
Result: binds

Does B1 bind [2]?
Result: binds

Does B1 bind [3]?
Result: binds

B2: MHL147-3322-IgG1-wt (bispecific antibody)
heavy 1: not shown
light 1: DIQMTQSPSSLSASVGDRVTITCKASQSVSNDVAWYQQKPGKAPKLLIYYAANRYTGVPDRFSGSGYGTDFTFTISSLQPEDIATYFCQQDYTSPYTFGQGTKLEIKIQRTPKIQVYSCHPAENGKSNFLNCYVSGFHPSDIEVDLLKNGERIEKVEHSDLSFSKDWSFYLLYYTRFTPTEKDEYACRVNHVTLSQPKIVKWDRGP
heavy 2: not shown
light 2: DIQMTQSPSSLSASVGDRVTITCKASENVVSYVSWYQQKPGKAPKLLIYGASNRYTGVPSRFIGSGSSTDFTLTISSLQPEDFATYYCGQSYSYPLTFGQGTKLEIKRTVAAPSVFIFPPSDEQLKSGTASVVCLLNNFYPREAKVQWKVDNALQSGNSQESVTEQDSKDSTYSLSSTLTLSKADYEKHKVYACEVTHQGLSSPVTKSFNRGEC
notes: IgG1 bispecific with LALA (L234A+L235A) and KIH mutations; The PD-L1 arm is modified with MHC-I elements; the CD47 arm is a Fab with wild-type kappa CL; also called anti-PDL1*CD47 bispecific antibody
What does the source list for B2?
Kd (human CD47): 3.31 nM; koff (human CD47): 0.0124 s⁻¹; kon (human CD47): 3.75e+06 M⁻¹ s⁻¹; Kd (human PDL1): 0.304 nM; koff (human PDL1): 0.000562 s⁻¹; kon (human PDL1): 1.85e+06 M⁻¹ s⁻¹

B3: MHL147-3322-IgG1-F118A (bispecific antibody)
heavy 1: not shown
light 1: DIQMTQSPSSLSASVGDRVTITCKASQSVSNDVAWYQQKPGKAPKLLIYYAANRYTGVPDRFSGSGYGTDFTFTISSLQPEDIATYFCQQDYTSPYTFGQGTKLEIKIQRTPKIQVYSCHPAENGKSNFLNCYVSGFHPSDIEVDLLKNGERIEKVEHSDLSFSKDWSFYLLYYTRFTPTEKDEYACRVNHVTLSQPKIVKWDRGP
heavy 2: not shown
light 2: DIQMTQSPSSLSASVGDRVTITCKASENVVSYVSWYQQKPGKAPKLLIYGASNRYTGVPSRFIGSGSSTDFTLTISSLQPEDFATYYCGQSYSYPLTFGQGTKLEIKRTVAAPSVFIAPPSDEQLKSGTASVVCLLNNFYPREAKVQWKVDNALQSGNSQESVTEQDSKDSTYSLSSTLTLSKADYEKHKVYACEVTHQGLSSPVTKSFNRGEC
notes: IgG1 bispecific with LALA (L234A+L235A) and KIH mutations; The PD-L1 arm is modified with MHC-I elements; the CD47 arm is a Fab whose kappa CL carries F118A (EU numbering); also called MHL147-3322-F118A; anti-PDL1*CD47 bispecific antibody
What does the source list for B3?
Kd (human CD47): 5.26 nM; koff (human CD47): 0.0249 s⁻¹; kon (human CD47): 4.74e+06 M⁻¹ s⁻¹; Kd (human PDL1): 0.384 nM; koff (human PDL1): 0.000606 s⁻¹; kon (human PDL1): 1.58e+06 M⁻¹ s⁻¹

B4: HZ14A9 monoclonal antibody (antibody, V domains shown)
VH: QVQLVQSGAEVKKPGASVKVSCKVSGFNIEDDYIEWVRQAPGQGLEWMGRIDPANDKTKYAQKFQGRVTMTGDTSTNTVYMELSSLRSEDTAVYYCARPGLRRYYSMDYWGQGTLVTVSS
VL: DIQMTQSPSSLSASVGDRVTITCKASENVVSYVSWYQQKPGKAPKLLIYGASNRYTGVPSRFIGSGSSTDFTLTISSLQPEDFATYYCGQSYSYPLTFGQGTKLEIKR
notes: Humanized IgG1 kappa antibody from a mouse hybridoma; also called monoclonal IgG1K antibody HZ14A9 targeting human CD47
How did the Kd (human CD47) turn out when B4 was run?
The Kd was 5.85 nM.

What about the koff (human CD47) of the same binder?
The koff was 0.0143 s⁻¹.

What about the kon (human CD47) of the same binder?
The kon was 2.45e+06 M⁻¹ s⁻¹.

B5: light chain HZ14A9VL-Cβ (other)
light: DIQMTQSPSSLSASVGDRVTITCKASENVVSYVSWYQQKPGKAPKLLIYGASNRYTGVPSRFIGSGSSTDFTLTISSLQPEDFATYYCGQSYSYPLTFGQGTKLEIKIQRTPKIQVYSCHPAENGKSNFLNCYVSGFHPSDIEVDLLKNGERIEKVEHSDLSFSKDWSFYLLYYTRFTPTEKDEYACRVNHVTLSQPKIVKWDRGP
Does B5 bind [1]?
Result: no binding

B6: light chain HZ5G11VL-Cβ (other)
light: DIQMTQSPSSLSASVGDRVTITCKASQSVSNDVAWYQQKPGKAPKLLIYYAANRYTGVPDRFSGSGYGTDFTFTISSLQPEDIATYFCQQDYTSPYTFGQGTKLEIKIQRTPKIQVYSCHPAENGKSNFLNCYVSGFHPSDIEVDLLKNGERIEKVEHSDLSFSKDWSFYLLYYTRFTPTEKDEYACRVNHVTLSQPKIVKWDRGP
notes: HZ5G11 light chain whose CL is replaced by MHCICβ
Does B6 bind [4]?
Result: no binding

B7: HZ5G11 monoclonal antibody (antibody, V domains shown)
VH: QITLKESGPTLVKPTQTLTLTCTVSGFSLSTYGVHWIRQPPGKALEWLGVIWRGVTTDYNAAFMSRLTITKDNSKNQVVLTMNNMDPVDTATYYCARLGFYAMDYWGQGTLVTVSS
VL: DIQMTQSPSSLSASVGDRVTITCKASQSVSNDVAWYQQKPGKAPKLLIYYAANRYTGVPDRFSGSGYGTDFTFTISSLQPEDIATYFCQQDYTSPYTFGQGTKLEIKR
notes: Humanized IgG1 kappa antibody from a mouse hybridoma; also called monoclonal IgG1K antibody HZ5G11 targeting human PD-L1
With B7 as the binder, how does the Kd (human PDL1) read?
Its Kd is 0.282 nM.

And the koff (human PDL1)?
Its koff is 0.000427 s⁻¹.

What about the kon (human PDL1) of the same binder?
Its kon is 1.51e+06 M⁻¹ s⁻¹.

B8: light chain HZ5G11VL-IgK (other)
light: DIQMTQSPSSLSASVGDRVTITCKASQSVSNDVAWYQQKPGKAPKLLIYYAANRYTGVPDRFSGSGYGTDFTFTISSLQPEDIATYFCQQDYTSPYTFGQGTKLEIKRTVAAPSVFIFPPSDEQLKSGTASVVCLLNNFYPREAKVQWKVDNALQSGNSQESVTEQDSKDSTYSLSSTLTLSKADYEKHKVYACEVTHQGLSSPVTKSFNRGEC
Does B8 bind [4]?
Result: binds

Does B8 bind [5]?
Result: binds

Does B8 bind [6]?
Result: binds

B9: HZ5G11VL-IgK-F118I (other)
light chain: DIQMTQSPSSLSASVGDRVTITCKASQSVSNDVAWYQQKPGKAPKLLIYYAANRYTGVPDRFSGSGYGTDFTFTISSLQPEDIATYFCQQDYTSPYTFGQGTKLEIKRTVAAPSVFIIPPSDEQLKSGTASVVCLLNNFYPREAKVQWKVDNALQSGNSQESVTEQDSKDSTYSLSSTLTLSKADYEKHKVYACEVTHQGLSSPVTKSFNRGEC
notes: Variant of m12; also called light chain HZ5G11VL-IgK with F118I (EU numbering) in the CL domain
Does B9 bind [7]?
Result: binds

B10: HZ5G11VL-IgK-S114A (other)
light chain: DIQMTQSPSSLSASVGDRVTITCKASQSVSNDVAWYQQKPGKAPKLLIYYAANRYTGVPDRFSGSGYGTDFTFTISSLQPEDIATYFCQQDYTSPYTFGQGTKLEIKRTVAAPAVFIFPPSDEQLKSGTASVVCLLNNFYPREAKVQWKVDNALQSGNSQESVTEQDSKDSTYSLSSTLTLSKADYEKHKVYACEVTHQGLSSPVTKSFNRGEC
notes: Variant of m12; also called light chain HZ5G11VL-IgK with S114A (EU numbering) in the CL domain
Does B10 bind [7]?
Result: binds

B11: HZ5G11VL-IgK-F116A (other)
light chain: DIQMTQSPSSLSASVGDRVTITCKASQSVSNDVAWYQQKPGKAPKLLIYYAANRYTGVPDRFSGSGYGTDFTFTISSLQPEDIATYFCQQDYTSPYTFGQGTKLEIKRTVAAPSVAIFPPSDEQLKSGTASVVCLLNNFYPREAKVQWKVDNALQSGNSQESVTEQDSKDSTYSLSSTLTLSKADYEKHKVYACEVTHQGLSSPVTKSFNRGEC
notes: Variant of m12; also called light chain HZ5G11VL-IgK with F116A (EU numbering) in the CL domain
Does B11 bind [7]?
Result: binds
